{"source": "patent US20220002395A1", "about": "(FAPON BIOTECH, published 2022)", "binders": {"B1": {"name": "Anti-HRP-II 3R5 monoclonal antibody (recombinant, expressed in CHO cells; WT) (antibody, mouse IgG2b, kappa, V domains shown)", "VH": "EVQLQQSGPEVVKPGASVKISCKASGSTLTEYYMNWVKQSHGKGLEWIGDLNPINGGTPYQQKFRDKATLTVDKSSNTAYMELRSLTSEDSALYYCTRGAEEYWGQGTTLTVSS", "VL": "DVVLTQTPLSLSVTIGQPASISCKSSQSIIYSNGKIYINWFQQRPGQSPKRLMYQLSKIDPGIPDRFSGSGSETDFTLKISRVEAEDLGVYYCLQGTYSPNTFGGGTKLEIKR", "notes": "Mouse IgG; also called Anti-HRP-H3R5; CHO transient-transfected cell supernatant"}, "B2": {"name": "Mutation 2 (antibody, mouse IgG2b, kappa, V domains shown)", "VH": "B1 VH", "VL": "B1 VL with I38L", "notes": "WT as framework"}, "B3": {"name": "Mutation 3 (antibody, mouse IgG2b, kappa, V domains shown)", "VH": "B1 VH with E31Q, P59V, E102M", "VL": "B1 VL with I38G, I59F, N101M", "notes": "WT as framework"}, "B4": {"name": "Mutation 1 (antibody, mouse IgG2b, kappa, V domains shown)", "VH": "B1 VH with E31D, P59A, E102D", "VL": "B1 VL with I38L, I59L, N101Q", "notes": "also called Variant 1"}}, "key": {"[1]": {"molecular_target": "T1, Plasmodium falciparum histidine-rich protein II (HRP-II) (Plasmodium falciparum, UniProt P05227 22-332)", "T1 construct": "Coating antigen of all ELISAs; also called HRP-II protein; MA-HRPII Ag protein", "T1 sequence (looked up)": "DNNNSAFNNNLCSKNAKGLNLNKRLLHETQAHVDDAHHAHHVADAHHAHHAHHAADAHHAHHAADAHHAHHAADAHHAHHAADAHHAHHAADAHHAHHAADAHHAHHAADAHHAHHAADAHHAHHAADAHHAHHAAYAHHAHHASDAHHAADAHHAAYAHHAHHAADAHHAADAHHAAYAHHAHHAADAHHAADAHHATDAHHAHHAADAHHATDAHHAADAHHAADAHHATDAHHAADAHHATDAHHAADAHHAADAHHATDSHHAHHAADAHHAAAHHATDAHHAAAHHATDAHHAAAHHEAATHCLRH", "experiment": "indirect ELISA, four antigen coating concentrations"}, "[2]": {"molecular_target": "T1, Plasmodium falciparum histidine-rich …", "experiment": "indirect ELISA, four antigen coating concentrations", "remark": "listed apart in the source", "experimental": "The OD values corresponding to different antibody concentrations with different coating concentrations are obtained. Under the same coating concentration, the antibody concentrations are used as an abscissa, the OD values are used as an ordinate, and a logarithmic plot is made. […] An average value thereof is taken and a reciprocal thereof is calculated to get the affinity constant KD."}, "[3]": {"molecular_target": "T1, Plasmodium falciparum histidine-rich …", "experiment": "indirect ELISA, coated MA-HRPII Ag 1 ug/ml, antibody 1000 ng/ml"}, "[4]": {"molecular_target": "T1, Plasmodium falciparum histidine-rich …", "experiment": "indirect ELISA, coated MA-HRPII Ag 1 ug/ml, antibody 8 ng/ml"}, "[5]": {"molecular_target": "T1, Plasmodium falciparum histidine-rich …", "experiment": "indirect ELISA, coated MA-HRPII Ag 1 ug/ml, antibody 0.32 ng/ml"}, "[6]": {"molecular_target": "T1, Plasmodium falciparum histidine-rich …", "experiment": "indirect ELISA, coated MA-HRPII Ag 1 ug/ml, antibody 200 ng/ml"}, "[7]": {"molecular_target": "T1, Plasmodium falciparum histidine-rich …", "experiment": "indirect ELISA, coated MA-HRPII Ag 1 ug/ml, antibody 40 ng/ml"}, "[8]": {"molecular_target": "T1, Plasmodium falciparum histidine-rich …", "experiment": "indirect ELISA, coated MA-HRPII Ag 1 ug/ml, antibody 1.6 ng/ml"}, "[9]": {"molecular_target": "T1, Plasmodium falciparum histidine-rich …", "experiment": "indirect ELISA, four antigen coating concentrations", "remark": "listed apart in the source", "experimental": "The OD values corresponding to different antibody concentrations with different coating concentrations are obtained. Under the same coating concentration, the antibody concentrations are used as an abscissa, the 00 values are used as an ordinate, and a logarithmic plot is made. […] An average value thereof is taken and a reciprocal thereof is calculated to get the affinity constant KD."}}, "note": "Numbering of substitutions follows the chain as printed. Where two headings read alike, the source gives them in different places.", "data": [{"binder": "B1", "values": [{"measurement": "Kd", "setting": "[1]", "result": 0.633, "unit": "nM"}, {"measurement": "Kd", "setting": "[2]", "result": 0.633, "unit": "nM"}, {"measurement": "OD value at 450 nm (ref 630 nm)", "setting": "[3]", "result": 2.34, "unit": "OD"}, {"measurement": "OD value at 450 nm (ref 630 nm)", "setting": "[4]", "result": 0.122, "unit": "OD"}, {"measurement": "OD value at 450 nm (ref 630 nm)", "setting": "[5]", "result": 0.058, "unit": "OD"}, {"measurement": "OD value at 450 nm (ref 630 nm)", "setting": "[6]", "result": 1.97, "unit": "OD"}, {"measurement": "OD value at 450 nm (ref 630 nm)", "setting": "[7]", "result": 0.402, "unit": "OD"}, {"measurement": "OD value at 450 nm (ref 630 nm)", "setting": "[8]", "result": 0.053, "unit": "OD"}]}, {"binder": "B2", "values": [{"measurement": "OD value at 450 nm (ref 630 nm)", "setting": "[3]", "result": 2.23, "unit": "OD"}, {"measurement": "OD value at 450 nm (ref 630 nm)", "setting": "[4]", "result": 0.189, "unit": "OD"}, {"measurement": "OD value at 450 nm (ref 630 nm)", "setting": "[5]", "result": 0.077, "unit": "OD"}, {"measurement": "OD value at 450 nm (ref 630 nm)", "setting": "[6]", "result": 2.05, "unit": "OD"}, {"measurement": "OD value at 450 nm (ref 630 nm)", "setting": "[7]", "result": 0.551, "unit": "OD"}, {"measurement": "OD value at 450 nm (ref 630 nm)", "setting": "[8]", "result": 0.101, "unit": "OD"}]}, {"binder": "B3", "values": [{"measurement": "OD value at 450 nm (ref 630 nm)", "setting": "[3]", "result": 0.814, "unit": "OD"}, {"measurement": "OD value at 450 nm (ref 630 nm)", "setting": "[6]", "result": 0.635, "unit": "OD"}, {"measurement": "OD value at 450 nm (ref 630 nm)", "setting": "[7]", "result": 0.032, "unit": "OD"}]}, {"binder": "B4", "values": [{"measurement": "Kd", "setting": "[9]", "result": 0.0521, "unit": "nM"}, {"measurement": "OD value at 450 nm (ref 630 nm)", "setting": "[3]", "result": 2.52, "unit": "OD"}, {"measurement": "OD value at 450 nm (ref 630 nm)", "setting": "[4]", "result": 0.288, "unit": "OD"}, {"measurement": "OD value at 450 nm (ref 630 nm)", "setting": "[5]", "result": 0.089, "unit": "OD"}, {"measurement": "OD value at 450 nm (ref 630 nm)", "setting": "[6]", "result": 2.4, "unit": "OD"}, {"measurement": "OD value at 450 nm (ref 630 nm)", "setting": "[7]", "result": 0.695, "unit": "OD"}, {"measurement": "OD value at 450 nm (ref 630 nm)", "setting": "[8]", "result": 0.16, "unit": "OD"}]}]}
